Target: BPV-1 E2 protein, wild type, full length (amino acids 1 to 410) (bovine papillomavirus (BPV-1), UniProt P03122)
Assay: alternative two hybrid assay in yeast, LexA/LacZ reporter pSH18-34, GAL/XGAL plate

B1: LexA DBD alone (YEplac181GLexA202) (other)
chain: MKALTARQQEVFDLIRDHISQTGMPPTRAEIAQRLGFRSPNAAEEHLKALARKGVIEIVSGASRGIRLLQEEEEGLPLVGRVAAGEPLLAQQHIEGHYQVDPSLFKPNADFLLRVSGMSMKDIGIMDGDLLAVHKTQDVRNGQVVVARIDDEVTVKRLKKQGNKVELLPENSEFKPIVVDLRQQSFTIEGLAVGVIRNGDWL
- binding result: no binding
